Like-named read-outs stand apart in the source and are kept apart here.
Assays:
PD-L1-ECD = PD-L1-ECD (UniProt Q9NZQ7); assay: BLI
CD16a-ECD (human) [1] = molecular target: CD16a-ECD (human) (UniProt P08637)
CD16a-ECD (human) [2] = molecular target: CD16a-ECD (human) (UniProt P08637); assay: BLI

Sequence of CD16a-ECD (human) (P08637 17-208): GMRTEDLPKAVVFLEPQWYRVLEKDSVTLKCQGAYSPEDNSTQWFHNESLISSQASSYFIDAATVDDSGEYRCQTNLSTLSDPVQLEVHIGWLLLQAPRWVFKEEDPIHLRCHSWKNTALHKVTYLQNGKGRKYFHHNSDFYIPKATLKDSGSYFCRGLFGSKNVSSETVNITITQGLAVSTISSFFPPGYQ
Sequence of PD-L1-ECD (Q9NZQ7 19-238): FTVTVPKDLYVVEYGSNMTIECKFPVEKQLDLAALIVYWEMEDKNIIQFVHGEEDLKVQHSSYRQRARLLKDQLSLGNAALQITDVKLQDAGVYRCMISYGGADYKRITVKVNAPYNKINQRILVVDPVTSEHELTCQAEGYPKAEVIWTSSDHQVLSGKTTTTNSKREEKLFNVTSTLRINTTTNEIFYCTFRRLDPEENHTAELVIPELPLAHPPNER

## ICI12 (from UniProt P01857)
PD-L1-ECD
  Kd: 5.8 nM

## ICI13 (from UniProt P01857)
PD-L1-ECD
  Kd: 3.2 nM

## bispecific hdFEB4-1-4×hNKE14-8 (bispecific antibody)
CD16a-ECD (human) [1]
  EC50 of the ADCC reporter bioassay (Promega G7010, luciferase; A431 target cells; 0.2 nM – 13.3 nM antibody): 0.362 nM

## bispecific hdFEB4-1-4×hNKE14-8 (from UniProt P01857)
CD16a-ECD (human) [2]; bispecific antibody
  Kd: 16.5 nM

## hNKE14-8 (from UniProt P01857)
CD16a-ECD (human) [2]
  Kd: 15.5 nM

From article PMC8141644
